Results taken from publication PMC7464140, “Cooperative Regulation of Campylobacter jejuni Heat-Shock Genes by HspR and HrcA” (Microorganisms, 2020).

B1: His-tagged HspR (C. jejuni) (natural protein, UniProt Q0P926 1-124, looked up)
chain: MEQHYDEPVYLISVVAKVLSIHPQTLRQYEREGLIEPSRTDGKIRLYSQRDIDRIKLILRLTRDMGINLAGVDVILKLKNQLHEFENLIDELRLELSKQQDKEAASKAVVKHKNSFDLIFYEKK
notes: HspR heat-shock transcriptional repressor of Campylobacter jejuni; Probably strain NCTC11168, the only C. jejuni strain named; also called His-HspR; recombinant His-tagged HspR; source: E. coli BL21 (DE3), pET15b-hspR, purified (Ni2+-NTA)
B2: His-tagged HrcA (C. jejuni) (natural protein, UniProt Q9PPG2 1-264, looked up)
chain: MMKSRDKKDLILESIIQTYLLDNAPIGSNELNSNLCIPASTIRVYLKRLSDEGLITQLHISSGRIPTILTMQNYWQNFWEKEQDKNIHIKNESFLKELSKEFEIYCLVYGGRSLVLKEVLDLNTKFIVLDFEDEELVLKYEKEAWNFLQSLIGLDLSSIEKIALRVHFIDLVEKIASLRQNLICYRSNEERAYQIYQNDEFVKLLDCQIHRHFKESLEFEPLFKEGFMGLKVDAQFLGEDVNIILAGSVYTDYKKILQYIKEAA
notes: HrcA heat-shock transcriptional repressor of Campylobacter jejuni; it could also have been GST-HrcA; also called His-HrcA; recombinant HrcA protein; source: E. coli BL21 (DE3), pET15b-hrcA, purified (Ni2+-NTA)

Molecular target: the molecule itself
Assay: cross-linking; in vitro chemical cross-linking of HrcA and HspR proteins with formaldehyde (Figure S2)

| Protein | stoichiometry N |
| --- | --- |
| B1 | 2 |
| B2 | 2 |
